Ends that are not written are not given here. * marks the point of attachment. Palmitoyl = CCCCCCCCCCCCCCCC(=O)*
Assays:
Type in all cases: physicochemical
[1] = Solubility of the lipopeptides in pure water
[2] = Sterilizing filtration (0.22 μm) of lipopeptide mixtures; conditions: for yield (%): batch CK9, 20 mg/ml in 80% acetic acid, filtered 0.22 μm, range reflects precision of determination
Experimental: The solutions obtained were subjected to ultrasonic action to encourage the dispersion of the aggregates, mixed to give a final volume of 5.5 ml, and the mixture was again subjected to ultrasonic action, then diluted with 9.5 ml of water to obtain a final concentration of about 8% in acetic acid (AcOH), compatible with a good quality freeze-drying. This solution, after a final period in the ultrasonic bath, was filtered over Millipore Millex GV SLGV 0130S filters (0.22 μm).
An ultrasonic step was used at each stage to ensure effective dispersion of the aggregates.
The solutions were mixed, then filtered over Millex GV SLGV 0130S filters (0.22 μm). […] The receiver vessels and the filter were then rinsed with water, in sufficient quantity to give a final acetic acid concentration of 8% (final volume 15 ml as before), so as to ensure the quality of the freeze-drying step.
The procedure used was the same as for the previous batch, apart from the quantities. The solution of the peptide (20 mg/ml in 80% acetic acid) was filtered in 4 portions, changing the filter before its saturation, using identical membranes (Durapore STERIVEX GV 0.22 μm sterile units (Millipore)), then made up with the water used for rinsing the filters and for dilution. The final volume was 1516 ml (including 154 ml of acetic acid: 10% in final solution). The portion volume was 1.3 ml per dose. The apportioned doses were freeze-dried, and analysed using a validated HPLC determination method.
This set of peptides was synthesized as described in the previous examples.
This set of peptides was synthesized as described in example 1. The mixture of solutions was performed on a sample of 5 mg of each peptide previously dissolved at a concentration of 20 mg/ml in 80% acetic acid then mixed in the following order: 1: LSA3 NRI; 2: LSA3 NRII; 3: LSA3 CT1; 4 LSA3 RE.

[3] = Test of uniformity of concentration on batch CK9; conditions: batch CK9, 15 random samples, each injected three times
Experimental: According to the Pharmacopoeia, powders for parenteral use are subjected to a requirement of uniformity of concentration. The test must be performed on 10 random samples, which are analysed individually for the active ingredient using an appropriate analytical method. The preparation satisfies the test if the concentration of each sample is between 85 and 115% of the average concentration.
The test was performed on 15 random samples, taken up in solution and diluted in 80% acetic acid according to a standardized operational procedure, so as always to inject an identical proportion of about 15 μg, defined during preparation of the calibration curve. Each sample was injected three times, the concentration of each active ingredient corresponding to the average of the three values obtained.

[4] = batch CK2, simple mixture diluted to about 8% acetic acid, 0.22 μm filter
[5] = batch CK3, each lipopeptide in 80% acetic acid, mixed then filtered 0.22 μm

Substance: TQGYFPDWQNYTPGPGVRYPLTFGWCYKLVPK(Pam)-NH2 (TQGYFPDWQNYTPGPGVRYPLTFGWCYKLVPK(Palmitoyl)-NH2; N-terminus assumed; SMILES CCCCCCCCCCCCCCCC(=O)NCCCC[C@H](NC(=O)[C@@H]1CCCN1C(=O)[C@@H](NC(=O)[C@H](CC(C)C)NC(=O)[C@H](CCCCN)NC(=O)[C@H](Cc1ccc(O)cc1)NC(=O)[C@H](CS)NC(=O)[C@H](Cc1c[nH]c2ccccc12)NC(=O)CNC(=O)[C@H](Cc1ccccc1)NC(=O)[C@@H](NC(=O)[C@H](CC(C)C)NC(=O)[C@@H]1CCCN1C(=O)[C@H](Cc1ccc(O)cc1)NC(=O)[C@H](CCCNC(=N)N)NC(=O)[C@@H](NC(=O)CNC(=O)[C@@H]1CCCN1C(=O)CNC(=O)[C@@H]1CCCN1C(=O)[C@@H](NC(=O)[C@H](Cc1ccc(O)cc1)NC(=O)[C@H](CC(N)=O)NC(=O)[C@H](CCC(N)=O)NC(=O)[C@H](Cc1c[nH]c2ccccc12)NC(=O)[C@H](CC(=O)O)NC(=O)[C@@H]1CCCN1C(=O)[C@H](Cc1ccccc1)NC(=O)[C@H](Cc1ccc(O)cc1)NC(=O)CNC(=O)[C@H](CCC(N)=O)NC(=O)[C@@H](N)[C@@H](C)O)[C@@H](C)O)C(C)C)[C@@H](C)O)C(C)C)C(N)=O) [NEF 117]
- appearance of the solution in pure water [1]: slightly opalescent solution
- Filtration yield (%) after mixing [2, 4]: 81%
- Filtration yield (%) after mixing [2, 5]: quantitative
- yield (%) [2]: 109.08-116.72%
- Observed deviation [3]: 4.67%

Substance: VGFPVTPQVPLRPMTYKAAVDLSHFLKEKGGLK(Pam)-NH2 [NEF 66]
- Filtration yield (%) after mixing [2, 4]: 95%
- Filtration yield (%) after mixing [2, 5]: quantitative
- yield (%) [2]: 89.14-94.6%
- Observed deviation [3]: 4.23%

Substance: TRPNNNTRKSIHIGPGRAFYATGEIIGDIRQAHK(Palmitoyl)-NH2 [ENV]
- Filtration yield (%) after mixing [2, 4]: 95%
- Filtration yield (%) after mixing [2, 5]: quantitative
- yield (%) [2]: 104.71-110.89%
- Observed deviation [3]: 14.95%

Substance: EWRFDSRLAFHHVARELHPEYFKNK(Pam)-NH2 (EWRFDSRLAFHHVARELHPEYFKNK(Palmitoyl)-NH2; N-terminus assumed; SMILES CCCCCCCCCCCCCCCC(=O)NCCCC[C@H](NC(=O)[C@H](CC(N)=O)NC(=O)[C@H](CCCCN)NC(=O)[C@H](Cc1ccccc1)NC(=O)[C@H](Cc1ccc(O)cc1)NC(=O)[C@H](CCC(=O)O)NC(=O)[C@@H]1CCCN1C(=O)[C@H](Cc1c[nH]cn1)NC(=O)[C@H](CC(C)C)NC(=O)[C@H](CCC(=O)O)NC(=O)[C@H](CCCNC(=N)N)NC(=O)[C@H](C)NC(=O)[C@@H](NC(=O)[C@H](Cc1c[nH]cn1)NC(=O)[C@H](Cc1c[nH]cn1)NC(=O)[C@H](Cc1ccccc1)NC(=O)[C@H](C)NC(=O)[C@H](CC(C)C)NC(=O)[C@H](CCCNC(=N)N)NC(=O)[C@H](CO)NC(=O)[C@H](CC(=O)O)NC(=O)[C@H](Cc1ccccc1)NC(=O)[C@H](CCCNC(=N)N)NC(=O)[C@H](Cc1c[nH]c2ccccc12)NC(=O)[C@@H](N)CCC(=O)O)C(C)C)C(N)=O) [NEF 182]
- Filtration yield (%) after mixing [2, 4]: 92%
- Filtration yield (%) after mixing [2, 5]: quantitative
- yield (%) [2]: 96.23-102.05%
- Observed deviation [3]: 5.84%

— patent US7476386B1 (priority 1997, dated 2009)
